Source: patent US20190225691A1 (SHANGHAI HENLIUS BIOTECH, published 2019)
Where two headings read alike, the source gives them in different places.

How the values were obtained:
[1] = molecular target: T1, human PD-L1 on cells (PHA-activated human T cells); PD-L1-transfected CHO-S cells; A375 melanoma cells; … (human, UniProt Q9NZQ7 19-290); test: flow cytometry blocking assay: PD-L1 expressing CHO-S cells incubated with antibody, then biotin-labeled PD-1-Fc and streptavidin-PE; MFI of bound PD-1
T1 construct: whole, on cells; also called PD-L1 expressing T cells; PD-L1 expressing CHO-S cells
Description: PD-L1 expressing CHO-S cells were suspended in FACS buffer (PBS with 4% FBS). Various concentrations of tested antibodies were added to the cell suspension (3.5E5 cells/well) and incubated at 4° C. for 30 minutes. […] The cells were washed and then stained with streptavidin-PE at 4° C. for 30 minutes. Flow cytometric analyses were performed using the Cytomics FC 500 (Beckman Coulter Inc.).
Anti-PD-L1 reference antibody and Avastin were used as the positive and negative control, respectively.

[2] = molecular target: T1, human PD-L1 on cells (PHA-activated …); test: flow cytometry on A375 human melanoma cells, biotin-labeled anti-human IgG Fcγ and streptavidin-PE, MFI
[3] = molecular target: T1, human PD-L1 on cells (PHA-activated …); test: flow cytometry on NCI-H292 human NSCLC cells, biotin-labeled anti-human IgG Fcγ and streptavidin-PE, MFI
[4] = molecular target: T1, human PD-L1 on cells (PHA-activated …); test: flow cytometry on PHA-activated human CD3+ T cells, FITC-labeled anti-human IgG Fcγ, MFI
Description: Human T cells were isolated from PBMC using MagniSortTM Human T Cell Enrichment Kit (eBioscience). Isolated T cells were activated by 5 μg/mL phytohemagglutinin (PHA) for 3 days to stimulate the PD-L1 expression. Activated T cells were collected and incubated in FACS buffer (PBS with 2% FBS) with human Fc blocker (eBioscience) for 20 minutes at 4° C. Binding of anti-PD-L1 monoclonal antibody was assessed by incubating the activated T cells with the serial-diluted antibodies in FACS buffer. The cells were washed with flow buffer and the binding was detected with a FITC-labeled rabbit anti-human IgG FcγAb. Cells were also stained with mouse anti-human CD3 PE-Cy7 (eBioscience) for gating CD3-positive T cells. Flow cytometric analyses were performed using the Cytomics FC 500 (Beckman Coulter Inc.).

[5] = molecular target: T1, human PD-L1 on cells (PHA-activated …); test: flow cytometry on PHA-activated human T cells, biotin-labeled anti-human IgG Fcγ and streptavidin-PE, MFI
human PD-L1 ECD-His [6] = molecular target: T2, human PD-L1 ECD-His (human, UniProt Q9NZQ7 19-238); test: SPR, 25 C, antibody captured by anti-human IgG Fc, hPD-L1_ECD-His analyte, 1:1 fit
T2 construct: extracellular domain; Analyte in all SPR and BLI runs; also called hPD-L1_ECD-His; hPD-L1 ECD-His; not shown: His tag
Description: Experiments were carried out at 25° C., and measurements were made with serial dilutions of hPD-L1_ECD-His from 55.4 nM to 11.1 nM passing over the captured antibodies in HBS-P+ buffer supplemented with 0.1% (w/v) BSA with a flow rate of […]. All data were analyzed with the evaluation software and curves were fit with a 1:1 Langmuir binding model. Data are representative of two independent experiments performed in duplicate.

[7] = molecular target: T3, recombinant human PD-L1/Fc fusion protein (human, UniProt Q9NZQ7 19-238); test: ELISA: human PD-L1/Fc coated (15 ng/well), serially diluted antibody, HRP-conjugated secondary antibody, TMB, A450
T3 construct: also called hPD-L1 ECD-Fc; not shown: Fc part
Description: ELISA assays were performed to assess the binding of selected antibodies to recombinant human PD-L1/Fc fusion proteins. Fifteen nanograms per well of human PD-L1/Fc proteins were coated on 96-well EIA microplate overnight at 4° C. After blocking with 5% skim milk, serially diluted antibodies were added and incubated at RT for 1 hour. The unbound antibodies were removed and wells were washed with PBST twice. The HRP-conjugated secondary antibody was added to the wells, and, following an incubation, excess secondary antibody was washed away. TMB was added to the wells, and following incubation, the reaction was stopped, and HRP activity was measured by monitoring the increase in absorbance at 450 nm.

human PD-L1 ECD-His [8] = molecular target: T2, human PD-L1 ECD-His; test: SPR, ratio of KD to ref-1
human PD-L1 ECD-His [9] = molecular target: T2, human PD-L1 ECD-His; test: SPR, hPD-L1-His, comparison of IgG isotypes of PL2#3
human PD-L1 ECD-His [10] = molecular target: T2, human PD-L1 ECD-His; test: SPR, ratio of KD to ref-1; remark: listed apart in the source
Description: (§1) The binding affinity and kinetics were measured using surface plasmon resonance (SPR). […] Experiments were carried out at 25° C., and measurements were made with serial dilutions of hPD-L1-His from 19.1 nM to 0.71 nM passing over the captured antibodies in HBS-P+buffer supplemented with 0.1% (w/v) BSA with a flow rate of 25 μL/min. All data were analyzed with the evaluation software and curves were fit with a 1:1 Langmuir binding model. All the data are representative of two independent studies performed in duplicate.

human PD-L1 ECD-His [11] = molecular target: T2, human PD-L1 ECD-His; test: SPR, 25 C, antibody captured by anti-human IgG Fc, hPD-L1-His analyte, 1:1 fit
Description: as §1

T1 sequence (Q9NZQ7 19-290): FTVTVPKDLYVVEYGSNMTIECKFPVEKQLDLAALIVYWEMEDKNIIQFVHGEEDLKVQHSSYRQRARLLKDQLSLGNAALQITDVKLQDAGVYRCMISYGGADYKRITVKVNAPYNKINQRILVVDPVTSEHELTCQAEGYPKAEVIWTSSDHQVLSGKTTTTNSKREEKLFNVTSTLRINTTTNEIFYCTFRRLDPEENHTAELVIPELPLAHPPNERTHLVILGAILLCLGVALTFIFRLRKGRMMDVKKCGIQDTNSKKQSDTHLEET
T2 sequence (Q9NZQ7 19-238): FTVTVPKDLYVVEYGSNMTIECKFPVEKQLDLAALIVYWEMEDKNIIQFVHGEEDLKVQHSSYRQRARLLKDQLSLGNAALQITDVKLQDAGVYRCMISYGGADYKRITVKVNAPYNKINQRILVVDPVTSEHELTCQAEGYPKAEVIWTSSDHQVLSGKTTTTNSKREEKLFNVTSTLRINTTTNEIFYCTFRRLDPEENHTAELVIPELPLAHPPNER
T3 sequence (Q9NZQ7 19-238 limits assumed): as the sequence (Q9NZQ7 19-238) above

| IC50 (read off the curve) [1] [µg/mL] | EC50 (read off the curve) [4] [µg/mL] | Kd (human PD-L1 ECD-His [6]) [nM] | koff (human PD-L1 ECD-His [6]) [s⁻¹] | kon (human PD-L1 ECD-His [6]) [M⁻¹ s⁻¹] | EC50 (read off the curve) [7] [µg/mL] | Improvement over ref-1 (human PD-L1 ECD-His [8]) [fold] | Kd (human PD-L1 ECD-His [9]) [nM] | koff (human PD-L1 ECD-His [9]) [s⁻¹] | kon (human PD-L1 ECD-His [9]) [M⁻¹ s⁻¹] | Binder | other results |
| --- | --- | --- | --- | --- | --- | --- | --- | --- | --- | --- | --- |
| ~0.1 | ~0.04 | 11.9 | 0.0041 | 348000 | ~0.02 | – | – | – | – | PL3 (full-length, N297A mutant human IgG1) (antibody, V domains shown) VH: QVQLVQSGAEVKKPGSSVKVSCKASGGTFSSYTISWVRQAPGQGLEWMGRIIPILGIANYAQKFQGRVTITADKSTSTAYMELSSLRSEDTAVYYCARSRDGYSFGAFDIWGQGTLVTVSS VL: QSVVTQPPPVSGAPGQRVTISCTGSSSNIGAGYDVHWYQQLPGTAPKLLIYGNSNRPSGVPDRFSGSKSGTSASLAITGLQAEDEADYYCQSYDSSLSAPVVFGGGTKLTVLG | – |
| – | – | – | – | – | – | 0.41 | 1.56 | 0.00193 | 1.25e+06 | PL2 IgG1 (antibody, V domains shown) VH: EVQLVQSGGGLVKPGGSLRLSCAASGFTFSSYTMNWVRQAPGKGLEWVSSISSGSDYLYYADSVKGRFTISRDNAKNSLYLQMNSLRAEDTAVYYCARNELRWYPQAGAFDIWGQGTMVTVSS VL: QSVVTQPPSMSAAPGQNVTISCSGSSSYIESSYVSWYQQLPGTAPRLLIYDDDMRPSGIPDRFSGSKSGTSATLAITGLQTGDEADYYCEIWDSGLGGVFGGGTKLTVL | – |
| – | – | – | – | – | – | 2.64 | 0.239 | 0.000293 | 1.26e+06 | PL2#3 IgG4 (antibody, V domains shown, Human IgG4) VH: EVQLVQSGGGLVKPGGSLRLSCAASGFTFSSYTMNWVRQAPGKGLEWVSSISSGSDYLYYADSVKGRFTISRDNAKNSLYLQMNSLRAEDTAVYYCARNELRWYPQAGAFDRWGQGTMVTVSS VL: QSVVTQPPSMSAAPGQRVTISCSGSSSYIESSYVGWYQQLPGTAPRLLIYDDDMRPSGIPDRFSGSKSGTSATLAITGLQTGDEADYYCEIWRSGLGGVFGGGTKLTVL | – |
| – | – | – | – | – | – | 5.36 | 0.118 | 0.000162 | 1.34e+06 | PL2#3 IgG2 (antibody, V domains shown, Human IgG2 backbone) VH: EVQLVQSGGGLVKPGGSLRLSCAASGFTFSSYTMNWVRQAPGKGLEWVSSISSGSDYLYYADSVKGRFTISRDNAKNSLYLQMNSLRAEDTAVYYCARNELRWYPQAGAFDRWGQGTMVTVSS VL: QSVVTQPPSMSAAPGQRVTISCSGSSSYIESSYVGWYQQLPGTAPRLLIYDDDMRPSGIPDRFSGSKSGTSATLAITGLQTGDEADYYCEIWRSGLGGVFGGGTKLTVL | Improvement over ref-1 (human PD-L1 ECD-His [10]): 16.3 fold; Kd (human PD-L1 ECD-His [11]): 0.516 nM; koff (human PD-L1 ECD-His [11]): 0.000557 s⁻¹; kon (human PD-L1 ECD-His [11]): 1.32e+06 M⁻¹ s⁻¹ |

Second part, the binder before the results:

| Binder | IC50 (read off the curve) [1] [µg/mL] | EC50 (read off the curve) [4] [µg/mL] | Kd (human PD-L1 ECD-His [6]) [nM] | koff (human PD-L1 ECD-His [6]) [s⁻¹] | kon (human PD-L1 ECD-His [6]) [M⁻¹ s⁻¹] | EC50 (read off the curve) [7] [µg/mL] | Improvement over ref-1 (human PD-L1 ECD-His [8]) [fold] | Kd (human PD-L1 ECD-His [9]) [nM] | koff (human PD-L1 ECD-His [9]) [s⁻¹] | kon (human PD-L1 ECD-His [9]) [M⁻¹ s⁻¹] | other results |
| --- | --- | --- | --- | --- | --- | --- | --- | --- | --- | --- | --- |
| anti-PD-L1 ref-2 (IgG2) (antibody, V domains shown) VH: EVQLVESGGGLVKPGGSLRLSCAASGFTFSSYGMSWVRQAPGKGLEWVATINSGGSNTYYPDSLKGRFTISRDNAKNSLYLQMNSLRAEDTAVYYCARHDGGAMDYWGQGTTVTVSS VL: DIQMTQSPSSLSASVGDRVTITCRASESIYSYLAWYQQKPGKAPKLLVYNTKTLPEGVPSRFSGSGSGTDFTLTISSLQPEDFATYYCQHHYGTPPWTFGQGTRLEIK | ~0.2 | ~0.005 | – | – | – | – | – | – | – | – | EC50 (read off the curve) [2]: ~0.002 µg/mL; EC50 (read off the curve) [3]: ~0.01 µg/mL; EC50 (read off the curve) [5]: ~0.004 µg/mL |
| PL12 (full-length, N297A mutant human IgG1) (antibody, V domains shown) VH: QVQLVQSGAEVKKPGSSVKVSCKASGGTFSSYAISWVRQAPGQGLEWMGRIIPILGIANYAQKFQGRVTITADKSTSTAYMELSSLRSEDTAVYYCARGIGSYSFGAFDIWGQGTMVTVSS VL: QSVLTQPPSVSGAPGQRVTISCTRSSSNIGAGHDVHWYQQLPGTAPKLLIYGNSNRPSGVPDRFSGSKSGTSASLAITGLQAEDGADYYCQSYDSSLTGVVFGGGTKLTVLG | ~0.2 | ~0.03 | 6.68 | 0.00267 | 416000 | ~0.03 | – | – | – | – | – |
| PL1 (full-length, N297A mutant human IgG1) (antibody, V domains shown) VH: QIQLVQSGAEVKKPGSSVKVSCKASGGTFSSYAISWVRQAPGQGLEWMGRIIPILGIANYAQKFQGRVTITAGESTSTAYMELSSLRSEDTAVYYCAREGSSGWLGVLDYWGQGTLVTVSS VL: QAVLTQPSSVSGAPGQRVTISCTGSSSNVGAGYDVHWYQQLPGTAPKLLIYGNSNRPSGVPDRFSGSKSGTSASLAITGLQAEDEADYYCQSYDSSLSGWVFGGGTKLTVLG | ~0.02 | – | 15.8 | 0.00453 | 291000 | ~0.004 | – | – | – | – | – |
| PL2 (full-length, N297A mutant human IgG1) (antibody, V domains shown) VH: EVQLVQSGGGLVKPGGSLRLSCAASGFTFSSYTMNWVRQAPGKGLEWVSSISSGSDYLYYADSVKGRFTISRDNAKNSLYLQMNSLRAEDTAVYYCARNELRWYPQAGAFDIWGQGTMVTVSS VL: QSVVTQPPSMSAAPGQNVTISCSGSSSYIESSYVSWYQQLPGTAPRLLIYDDDMRPSGIPDRFSGSKSGTSATLAITGLQTGDEADYYCEIWDSGLGGVFGGGTKLTVLS | ~0.05 | ~0.005 | 8.72 | 0.0039 | 438000 | ~0.009 | – | – | – | – | – |
| PL2#3 IgG1 (antibody, V domains shown, Human IgG1) VH: EVQLVQSGGGLVKPGGSLRLSCAASGFTFSSYTMNWVRQAPGKGLEWVSSISSGSDYLYYADSVKGRFTISRDNAKNSLYLQMNSLRAEDTAVYYCARNELRWYPQAGAFDRWGQGTMVTVSS VL: QSVVTQPPSMSAAPGQRVTISCSGSSSYIESSYVGWYQQLPGTAPRLLIYDDDMRPSGIPDRFSGSKSGTSATLAITGLQTGDEADYYCEIWRSGLGGVFGGGTKLTVL | – | – | – | – | – | – | 2.53 | 0.25 | 0.000276 | 1.14e+06 | – |
